Reference: PMC3571956

Assays:
[1] = biological target: HEV ORF3 and GFP1 fusion protein (genotype 1) (hepatitis E virus genotype 1 (W2-1 strain)); test: co-IP; Matchmaker Chemiluminescent Co-IP System; 293FT cells co-transfected with pAcGFP1-ORF3 and pProLabel-prey, lysed at 48 h; precipitated with anti-AcGFP (GFP1) polyclonal antibody; ProLabel chemiluminescence (RLU) read on the beads
[2] = biological target: HEV ORF3 and GFP1 fusion protein (genotype 1) (hepatitis E virus genotype 1 (W2-1 strain)); test: co-IP; Matchmaker Chemiluminescent Co-IP System; 293FT cells co-transfected with pAcGFP1-ORF3 and pProLabel-prey, lysed at 48 h; precipitated with anti-HEV ORF3 polyclonal antibody; ProLabel chemiluminescence (RLU) read on the beads; three independent tests

B1: Hemopexin, ProLabel fusion (natural protein)
chain: TPLPPTSAHGNVAEGETKPDPDVTERCSDGWSFDATTLDDNGTMLFFKGEFVWKSHKWDRELISERWKNFPSPVDAAFRQGHNSVFLIKGDKVWVYPPEKKEKGYPKLLQDEFPGIPSPLDAAVECHRGECQAEGVLFFQGDREWFWDLATGTMKERSWPAVGNCSSALRWLGRYYCFQGNQFLRFDPVRGEVPPRYPRDVRDYFMPCPGRGHGHRNGTGHGNSTHHGPEYMRCSPHLVLSALTSDNHGATYAFSGTHYWRLDTSRDGWHSWPIAHQWPQGPSAVDAAFSWEEKLYLVQGTQVYVFLTKGGYTLVSGYPKRLEKEVGTPHGIILDSVDAAFICPGSSRLHIMAGRRLWWLDLKSGAQATWTELPWPHEKVDGALCMEKSLGPNSCSANGPGLYLIHGPNLYCYSDVEKLNAAKALPQPQNVTSLLGCTH
- chemiluminescent intensity [1]: 614 RLU
- chemiluminescent intensity [2]: 1140 RLU
